Assay results as given in patent publication US20220144890.

Tests used:
[1] = molecular target: H2 peptide derived from GBR
[2] = molecular target: H2 peptide derived from MAP1LC3B
[3] = molecular target: H2 peptide derived from MAP1LC3C
[4] = molecular target: T1, H2 α-helical peptide derived from GBRL2 (GABARAPL2 alpha-helix 2 domain)
T1 chain: VAQFMWIIRKR

B1: recombinant ATG4B (protein)
chain: MDAATLTYDTLRFAEFEDFPETSEPVWILGRKYSIFTEKDEILSDVASRLWFTYRKNFPAIGGTGPTSDTGWGCMLRCGQMIFAQALVCRHLGRDWRWTQRKRQPDSYFSVLNAFIDRKDSYYSIHQIAQMGVGEGKSIGQWYGPNTVAQVLKKLAVFDTWSSLAVHIAMDNTVVMEEIRRLCRTSVPCAGATAFPADSDRHCNGFPAGAEVTNRPSPWRPLVLLIPLRLGLTDINEAYVETLKHCFMMPQSLGVIGGKPNSAHYFIGYVGEELIYLDPHTTQPAVEPTDGCFIPDESFHCQHPPCRMSIAELDPSIAVGFFCKTEDDFNDWCQQVKKLSLLGGALPMFELVELQPSHLACPDVLNLSLDSSDVERLERFFDSEDEDFEILSL
ATG4B cleavage of chimeric Myc-GBRL2-S-tag substrate (blot) [1]: inhibited ATG4B cleavage activity in dose dependent manner | ATG4B cleavage of chimeric Myc-GBRL2-S-tag substrate (blot) [2]: inhibited ATG4B cleavage activity in dose dependent manner, while H2 peptides derived from MAP1LC3B and GBRL2 had the strongest inhibition on ATG4B | ATG4B cleavage of chimeric Myc-GBRL2-S-tag substrate (blot) [3]: inhibited ATG4B cleavage activity in dose dependent manner | ATG4B cleavage of chimeric Myc-GBRL2-S-tag substrate (blot) [4]: inhibited ATG4B cleavage activity in dose dependent manner, while H2 peptides derived from MAP1LC3B and GBRL2 had the strongest inhibition on ATG4B
